In test [1] the target is control protein from cells containing plasmid pUR291 (beta-galactosidase without an apolipoprotein insert) (Escherichia coli (strain K12)) [β-galactosidase: P00722]. The test is described as follows: ELISA, plate coated with 1/4 dilution of the pUR291 control stock, HRPO-labeled AI-11 1:1000. On the technique in general: ELISA stands for enzyme-linked immunosorbent assay.
The target in test [2] is apo A-I/B-100 fusion protein expressed by plasmid 137 (beta-galactosidase / apo A-I / apo B-100) (human). As to the kind of experiment: ELISA, plate coated with 1/4 dilution of the 137 stock, HRPO-labeled AI-11 1:1000.
For test [3], the target named is control protein from cells containing plasmid pUR291 (beta-galactosidase without an apolipoprotein insert) (Escherichia coli (strain K12)) [β-galactosidase: P00722]. As to the kind of experiment: ELISA, plate coated with 1/8 dilution of the pUR291 control stock, HRPO-labeled AI-11 1:1000.
Test [4] deals with apo A-I/B-100 fusion protein expressed by plasmid 137 (beta-galactosidase / apo A-I / apo B-100) (human). As to the kind of experiment: ELISA, plate coated with 1/64 dilution of the 137 stock, HRPO-labeled AI-11 1:1000.
Test [5] has the same target. The test is described as follows: ELISA, plate coated with 1/32 dilution of the 137 stock, HRPO-labeled AI-11 1:1000.
For test [6] the target is unchanged. The test is described as follows: ELISA, plate coated with 1/16 dilution of the 137 stock, HRPO-labeled AI-11 1:1000.
Test [7] concerns the target control protein from cells containing plasmid pUR291 (beta-galactosidase without an apolipoprotein insert) (Escherichia coli (strain K12)) [β-galactosidase: P00722]. The test is described as follows: ELISA, plate coated with 1/64 dilution of the pUR291 control stock, HRPO-labeled AI-11 1:1000.
The target is the same in test [8]. As to the kind of experiment: ELISA, plate coated with 1/16 dilution of the pUR291 control stock, HRPO-labeled AI-11 1:1000.
Test [9] has the same target. As to the kind of experiment: ELISA, plate coated with 1/2 dilution of the pUR291 control stock (395.0 ug/100 ul), HRPO-labeled AI-11 1:1000.
The target is the same in test [10]. As to the kind of experiment: ELISA, plate coated with 1/32 dilution of the pUR291 control stock, HRPO-labeled AI-11 1:1000.
Test [11] addresses apo A-I/B-100 fusion protein expressed by plasmid 137 (beta-galactosidase / apo A-I / apo B-100) (human). The test is described as follows: ELISA, plate coated with 1/2 dilution of the 137 stock (0.95 ug/100 ul), HRPO-labeled AI-11 1:1000.
The target is the same in test [12]. The test is described as follows: ELISA, plate coated with 1/8 dilution of the 137 stock, HRPO-labeled AI-11 1:1000.
Test [13] concerns the target control protein from cells containing plasmid pUR291 (beta-galactosidase without an apolipoprotein insert) (Escherichia coli (strain K12)) [β-galactosidase: P00722]. The test is described as follows: ELISA, plate coated with 1/2 dilution of the pUR291 control stock (395.0 ug/100 ul), HRPO-labeled MB47 1:1000.
The target in test [14] is apo A-I/B-100 fusion protein expressed by plasmid 137 (beta-galactosidase / apo A-I / apo B-100) (human). The test is described as follows: ELISA, plate coated with 1/8 dilution of the 137 stock, HRPO-labeled MB47 1:1000.
Test [15] has as its target control protein from cells containing plasmid pUR291 (beta-galactosidase without an apolipoprotein insert) (Escherichia coli (strain K12)) [β-galactosidase: P00722]. The test is described as follows: ELISA, plate coated with 1/8 dilution of the pUR291 control stock, HRPO-labeled MB47 1:1000.
For test [16] the target is unchanged. As to the kind of experiment: ELISA, plate coated with 1/4 dilution of the pUR291 control stock, HRPO-labeled MB47 1:1000.
The target in test [17] is apo A-I/B-100 fusion protein expressed by plasmid 137 (beta-galactosidase / apo A-I / apo B-100) (human). As to the kind of experiment: ELISA, plate coated with 1/16 dilution of the 137 stock, HRPO-labeled MB47 1:1000.
The target is the same in test [18]. The test is described as follows: ELISA, plate coated with 1/64 dilution of the 137 stock, HRPO-labeled MB47 1:1000.
Test [19] addresses control protein from cells containing plasmid pUR291 (beta-galactosidase without an apolipoprotein insert) (Escherichia coli (strain K12)) [β-galactosidase: P00722]. As to the kind of experiment: ELISA, plate coated with 1/16 dilution of the pUR291 control stock, HRPO-labeled MB47 1:1000.
The target in test [20] is apo A-I/B-100 fusion protein expressed by plasmid 137 (beta-galactosidase / apo A-I / apo B-100) (human). The test is described as follows: ELISA, plate coated with 1/2 dilution of the 137 stock (0.95 ug/100 ul), HRPO-labeled MB47 1:1000.
Test [21] deals with control protein from cells containing plasmid pUR291 (beta-galactosidase without an apolipoprotein insert) (Escherichia coli (strain K12)) [β-galactosidase: P00722]. The test is described as follows: ELISA, plate coated with 1/32 dilution of the pUR291 control stock, HRPO-labeled MB47 1:1000.
For test [22], the target named is apo A-I/B-100 fusion protein expressed by plasmid 137 (beta-galactosidase / apo A-I / apo B-100) (human). The test is described as follows: ELISA, plate coated with 1/32 dilution of the 137 stock, HRPO-labeled MB47 1:1000.
For test [23], the target named is control protein from cells containing plasmid pUR291 (beta-galactosidase without an apolipoprotein insert) (Escherichia coli (strain K12)) [β-galactosidase: P00722]. The test is described as follows: ELISA, plate coated with 1/64 dilution of the pUR291 control stock, HRPO-labeled MB47 1:1000.
Test [24] has as its target apo A-I/B-100 fusion protein expressed by plasmid 137 (beta-galactosidase / apo A-I / apo B-100) (human). As to the kind of experiment: ELISA, plate coated with 1/4 dilution of the 137 stock, HRPO-labeled MB47 1:1000.

For the substance “monoclonal antibody AI-11, secreted by hybridoma AI-11 (ATCC HB 9201)”, the Optical density at 490 nm in test [1] is 0.08 OD 490 nm; in [2] it was 0.6 OD 490 nm; in [3] it was 0.08 OD 490 nm; in [4], 0.12 OD 490 nm; in [5], 0.14 OD 490 nm; in test [6], 0.14 OD 490 nm. Also, the Optical density at 490 nm in test [7] amounted to 0.04 OD 490 nm; in [8], 0.07 OD 490 nm; in [9] it was 0.1 OD 490 nm; in test [10] it was 0.05 OD 490 nm; in [11], 1 OD 490 nm; in test [12] it was 0.2 OD 490 nm.

As to “monoclonal antibody MB47, secreted by hybridoma MB47 (ATCC HB 8746)”, the Optical density at 490 nm in [13] was determined as 0.1 OD 490 nm; in test [14], 0.14 OD 490 nm; in test [15], 0.1 OD 490 nm; in test [16], 0.12 OD 490 nm; in [17], 0.1 OD 490 nm; in test [18] it was 0.08 OD 490 nm. In addition, the Optical density at 490 nm in [19] is 0.04 OD 490 nm; in [20], 1.3 OD 490 nm; in test [21], 0.02 OD 490 nm; in [22], 0.1 OD 490 nm; in test [23] it was 0.01 OD 490 nm; in [24] it was 0.46 OD 490 nm.

The values are drawn from patent US5786206.
